These results are taken from publication PMC6395645, “Anopheline antiplatelet protein from mosquito saliva regulates blood feeding behavior” (Scientific Reports, 2019).

The target of the assay is T1, Anopheline antiplatelet protein (AAPP) (Anopheles stephensi (endogenous in …, UniProt Q7YT37)).
T1 construct: Anopheline antiplatelet protein (AAPP), predominant saliva protein of Anopheles stephensi; acidic secretory protein, Mr = 37 kDa on immunoblots; Same endogenous protein in saliva and in salivary gland lysates; in TG mosquitoes it is present together with mDsRed-8H7scFv; source: endogenous, Anopheles stephensi saliva and salivary gland lysates/homogenates (WT and TG mosquitoes)
In words: pull-down; Ni-NTA beads added to lysates (Cellytic M) of dissected salivary glands of TG and WT mosquitoes, 1 h on ice, washed with PBS; His-tagged mDsRed-8H7scFv held on the resin; eluate blotted with anti-AAPP mAb 28B8 and anti-mDsRed polyclonal Ab. The note with it: partners not purified.

T1 sequence (Q7YT37 20-269): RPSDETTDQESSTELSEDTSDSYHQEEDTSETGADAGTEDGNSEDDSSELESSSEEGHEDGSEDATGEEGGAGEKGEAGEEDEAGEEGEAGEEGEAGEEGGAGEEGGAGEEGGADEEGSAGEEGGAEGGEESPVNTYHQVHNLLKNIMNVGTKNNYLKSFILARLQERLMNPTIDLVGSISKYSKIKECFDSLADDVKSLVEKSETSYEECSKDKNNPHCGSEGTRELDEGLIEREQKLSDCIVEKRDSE

B1: mDsRed-8H7scFv (scFv, V domains shown)
VH: QVQLQQPGAELVRPGASVKLSCKASGYTFTSYWMNWVKQRPGQGLEWIGLIDPSDSETHYNQMFKDKATLTVDKSSSTAYMQLSSLTSEDSAVYYCARGGTYWGQGTTLTVSS
VL: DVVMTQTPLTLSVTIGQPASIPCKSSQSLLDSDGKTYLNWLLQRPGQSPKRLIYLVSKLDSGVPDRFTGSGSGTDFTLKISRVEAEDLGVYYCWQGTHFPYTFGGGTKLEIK
notes: VH of the anti-AAPP mAb 8H7; hinge/linker, printed as (Gly4Ser)3; VL of the anti-AAPP mAb 8H7; 54.6 kDa on blots; 8H7scFv is fused to monomeric DsRed through Gly4Ser x 3 linkers; The secretion signal is not described; also called anti-AAPP scFv; anti-AAPP antibody single-chain fragment; source: transgenic Anopheles stephensi (TG-03, TG-30, TG-37), expressed in salivary glands under the aapp …
For B1, the binding result was “binds”.
